The results in this text go back to IntAct's records for PubMed 25946333.

The chains are these.
B1: Nuclear envelope integral membrane protein 1 (Mus musculus), Q6ZQE4 (parent)
chain: MAGGIKVSVWSAVGPGPRCWGAGGGGGATWLLLVVAGCVVCGSADVNVVMLQESQVDMNSSQQFCYKNVLIPKWHDIWTRIQVRVNSSKLVRVTQVDNEEKLKELEQFSIWNFFSSFLKEKLNDTYVNVGLYSTKTCLKVEMIEKDTTYSVTVTRRFDPKLFLVFLLGLTLFFCGDLLSRSQIFYYSTGMSVGIVASLLIVIFMISKFMPKRSPIYVILVGGWSFSLYLIQLVFKNLQEIWRSYWHYLLSYILTVGFMSFAVCYKYGPLENERSINLLTWTLQLLGLGLMYSSIQIPHVAFALIVIALCTKNLEYPIHWLCSTYRRMCKASGKPVPPRLLTEEEYRIQGEVETQKALQELREFCNSPECSAWKTISRIQSPKRFADFVEGSFHLTPNEVSVHEQEYGLGSIFTQDEELSSEEEGSEYPTFTQNNFLT

In this experiment the parent is B1. Conditions: with ran_mouse Ran.
As to S366A;S376A;S380A;S419A;S420A, the “effect of a mutation on the interaction” value is “disrupting interaction strength”.

S366E;S376E;S380E;S419E;S420E: the “effect of a mutation on the interaction” value is on record as “disrupting interaction strength”.
